Experiment: soluble on expression in E. coli; label from the status in PepcDB or PDB records

Sequence	soluble on expression in E. coli
MGSDKIHHHHHHCELDRDPEGKDFQQPYTSFVQTKQNRDGLYALLRNTENPRMHFYQELQSDMYCTTITDGNSLAPFVNWDLGILNDHGRADEDEVSGIAGYYFVYNRLNQQANAFVNNTEAALQNQVYKNSTEIANAKSFLAEGKVLQALAIWRLMDRFSFHESVTEVNSGAKDLGVILLKEYNPGYIGPRATKAQCYDYILSRLSEAIEVLPENRESVLYVSRDYAYALRARIYLALGEYGKAAADAKMVVDKYPLIGAADASEFENIYRSDANNPEIIFRGFASATLGSFTATTLNGAAPAGKDIKYNPSAVPFQWVVDLYENEDFRKSVYIAKVVKKDKGYLVNKFLEDKAYRDVQDKPNLKVGARYFSVAEVYLILVESALQTGDTPTAEKYLKALSKARGAEVSVVNMEALQAERTRELIGEGSRLRDMVRWSIPNNHDAFETQPGLEGFANTTPLKAQAPVGFYAYTWEFPQRDRQTNPQLIKNWPI	not soluble
MTVRSRFFTEAEGKAVGVENAAAKGDVLLVCEHASATIPQKYGTLGLSADVLSSHAAWDPGALAVARLLSEKFHATLVYQRFSRLVYDCNRPPESPSAMPVKSEIYDIPGNFDLDEAERFARTSALYVPFHDRVSEIIAERQAAGRKVVVVTIHSFTPVYHGRFREVEIGILHDNDSRLADAMLAGAEGASLTVRRNDPYGPEDGVTHTLRLHALPDGLLNVMIEIRNDLIANEGEQAAIAGFLHELMGKALSSIEE	soluble
MTISVEKPIFEEEVSAFEKSGDNIGELKLDGGFSMPKMDTNDDEAFLAPEMNAFGRQFRDYDVESERQKGVEEFYRLQHINQTVDFVKKMRAEYGKLDKMVMSIWECCELLNEVVDESDPDLDEPQIQHLLQSAEAIRKDYPNEDWLHLTALIHDLGKVITLPQFGGLPQWAVVGDTFPVGCAFDESNVHHKYFVENPDFHNETYNTKNGIYSEGCGLNNVMMSWGHDDYMYLVAKENGSTLPSAGQFIIRYHSFYPLHTAGEYTHLMNEEDKENLKWLHVFNKYDLYSKSKVHVDVEKVKPYYMSLIKKYFPENLRW	soluble
MAHHHHHHMSTDIPVNDNETNSSFKLKSEINSIENELKNWFLKRRLNMEINYSLKKLFDSYNFVGLSINNNINLKDKMLWYDIVNGKPELEDTLSMDAKEYKADQYSYLWNKSTTIDNACRLVGSIYFRCLKNNFQLKKSEREHKCIQNFINFNNCRNALKLQQANNIKDSLIKQNMEDNIAKALFERRSLLLDMLEDFK	not soluble
MSEKPQQEEQEKPQSRRNSFAVIEFTPEVLDRCLKQVEFYFSEFNFPYDRFLRTTAEKNDGWVPISTIATFNRMKKYRPVDKVIEALRSSEILEVSADGENVKRRVPLDLTAARNARIEQNQRTLAVMNFPHEDVEASQIPELQENLEAFFKKLGEINQVRLRRDHRNKKFNGTVLVEFKTIPECEAFLKSYSNDDESNEILSYEGKKLSVLTKKQFDLQREASKSKNFSGRSRSFNGHKKKNLPKFPKNKKKNGKEESKEDSSAIADDDEEHKE	soluble
GMASAIIETAIPQSEMTASATSEEGQDPASSAIDGNINTMWHTKWNGSDALPQSLSVNLGKARKVSSIAITPRTSGNNGFITKYEIHAINNGVETLVAEGTWEENNLVKTVTFDSPIDAEEIKITAIQGVGGFASIAELNVYE	soluble
GDDYTQQQGEVEKQPNIDELKKRMEQSRLNKLRGDLDQLIESDPKLRALRPHLKIDLVQEGLRIQIIDSQNRPMFKTGSAEVEPYMRDILRAIAPVLNGIPNRISLAGHTDDFPYANGEKGYSNWELSADRANASRRELVAGGLDNGKVLRVVGMAATMRLSDRGPDDAINRRISLLVLNKQAEQAILHENAESQNEPVSVLQQHHHHHH	soluble
MSHSLRYFVTAVSRPGFGEPRYMEVGYVDNTEFVRFDSDAENPRYEPRARWIEQEGPEYWERETRRAKGNEQSFRVDLRTALRYYNQSAGGSHTLQWMAGCDVESDGRLLRGYWQFAYDGCDYIALNEDLKTWTAADMAAQITRRKWEQAGAAERDRAYLEGECVEWLRRYLKNGNATLLRTDPPKAHVTHHRRPEGDVTLRCWALGFYPADITLTWQLNGEELTQEMELVETRPAGDGTFQKWASVVVPLGKEQKYTCHVEHEGLPEPLTLRWGKE	soluble
MAHHHHHHSLSFSCPLCHQPLSREKNSYICPQRHQFDMAKEGYVNLLPVQHKRSRDPGDSAEMMQARRAFLDAGHYQPLRDAIVAQLRERLDDKATAVLDIGCGEGYYTHAFADALPEITTFGLDVSKVAIKAAAKRYPQVTFCVASSHRLPFSDTSMDAIIRIYAPCKAEELARVVKPGGWVITATPGPRHLMELKGLIYNEVHLHAPHAEQLEGFTLQQSAELCYPMRLRGDEAVALLQMTPFAWRAKPEVWQTLAAKEVFDCQTDFNIHLWQRSYEG	soluble
MAHHHHHHMRCVRRSVLGSRGLKRPMFNYTRIFSMGITQHTFTGALLEDLRAGGCCGDQTEDNPGSSLRHGELDHFESPEAEAAHVEKVNTVVDDLFSRMPLPEDPMGAALAPTKEEMEEKAEWDVLKEVVRERYQRKIALKEAERVRIDKAMQHYRVDKDIEGGVSGVTGATGDSEKIRKKIERMKQEIVELERRLEAANHDDNL	not soluble
MQQNTSLYDSLNVTAAASTSEIKKAYRNAALKYHPDKNNHTEESKRKFQEICQAYEILKDNRLRALYDQYGTTDEVLIQEQQAQAQRQQAGPFSSSSNFDTEAMSFPDLSPGDLFAQFFNSSATPSSNGSKSSFNFSFNNSSTPSFSFVNGSGVNNLYSSSAKYNSNDEDHHLDRGPDIKHNLKCTLKELYMGKTAKLGLNRTRICSVCDGHGGLKKCTCKTCKGQGIQTQTRRMGPLVQSWSQTCADCGGAGVFVKNKDICQQCQGLGFIKERKILQVTVQPGSCHNQLIVLTGEGDEVISTKGGGHEKVIPGDVVITILRLKDPNFQVINYSNLICKKCKIDFMTSLCGGVVYIEGHPSGKLIKLDIIPGEILKPGCFKTVEDMGMPKFINGVRSGFGHLYVKFDVTYPERLEPENAKKIQNILANDKYIKAERSTMETADSDCYCDLEKSYDSVEEHVLSSFEAPNLNNEVIEDDDLGDLINERDSRKRNNRRFDESNINNNNETKRNKYSSPVSGFYDHDINGY	not soluble
MVADRFSHVRGWVFDLDNTLYPPSARLFDQIERRMTDWVMTELRVVREEADRLRRHYWSTYGTTLAGLMAEHGVDPAPYLSHVHDISLDHLERDMILAARIRALPGRKIVYTNGCAPYAERVLEARGLANLFDAVYGVEHAGFRPKPDRAAFETVFAADRLAPGTAAMFEDDSRNLLAPHEMGMRTVHVAPEALPAPHIHHHTLDLSEFLALLQP	not soluble
MAKEWFTVKECLGLPGFPGSEPAVRERLYKYSEGKEGVRRKRVKSKAEEFHISVFPLYVHRYLDDSGEEPTPEPISLQEAEPEDIWEMMFRLLTPEQRKQVTGRFKVRGMKAVFPFLFDDTPPR	not soluble
MGSDKIHHHHHHMEKSEEKEIICRMFNSPLPHPSQNHLLAALPAMELGDLIPHLELIHMRAGDILCEAGDQLPYAYFPASAIISLHYILENGASSEIANVGREGMLGVSLFMGGETSSNWATVQIPGFAYRLKAAFLSQELKRGGQLQWILLRYSQALITQIAQIGVCNRYHTIEQQLCRWFLLTLDRLDSSELSMTQELIANALGVSRESVAGVAGKLQGRGIIRYQRGHITVLNRTGLETGACECYETIKKEFDDALDDVRKPTLHQGDQSSKTLPLL	not soluble
MSLQEKNFSEEEIDDALSRCQAKNWQSDRRFSENYLNSRVQKGYGVGRIRQELRQLKGVSSDIIDEVLMESEIDWYEMAENLLRKKFPNYNEQQTPKMKQKIWQYMLSHGFRSDEFADLIGQNQSEWDEGHHHHHH	soluble
GAMGNERRILEQKKHYFWLLLQRTYTKTGKPKPSTWDLASKELGESLEYKALGDEDNIRRQIFEDFKPE	soluble

— the DeepSol protein solubility set
